{
  "source": "patent US20190093159",
  "key": {"[1]": {"tested_on": "H3Kac5-containing nucleosomes (H3 K9/14/18/23/27ac)"}, "[2]": {"target": "H4Kac5-containing nucleosomes (H4 K5/8/12/16/20ac) (UniProt P62805)"}, "[3]": {"target": "nucleosomes with H4K12ac (UniProt P62805)"}, "[4]": {"target": "wt nucleosomes (UniProt P62805)"}},
  "data": [
    {"substance": "recombinant full-length human p300", "values": [
      {"measurement": "H4 acetylation (α-H4K5ac pulldown) compared to wt", "setting": "[1]", "value": "6-fold increase compared to wt"},
      {"measurement": "H3 acetylation (α-H3K18ac pulldown) compared to wt", "setting": "[2]", "value": "13-fold compared to wt"},
      {"measurement": "H3 acetylation (α-H3K18ac pulldown)", "setting": "[3]", "value": "This effect was dependent on the exact position of the mark within the tail and was most pronounced for H4K12ac"},
      {"measurement": "pulldown efficiency with α-H4K5ac antibody (% input)", "setting": "[3]", "value": 4.4, "unit": "% input"},
      {"measurement": "pulldown with α-H3K18ac antibody (% input), with AcCoA", "setting": "[4]", "value": "an increase in pulldown from 0.3% to about 4% input"},
      {"measurement": "pulldown with α-H3K18ac antibody (% input), without AcCoA", "setting": "[4]", "value": "an increase in pulldown from 0.3% to about 4% input"},
      {"measurement": "pulldown with α-H4K5ac antibody (% input), with AcCoA", "setting": "[4]", "value": "0.5 to 0.9", "unit": "% input"},
      {"measurement": "pulldown with α-H4K5ac antibody (% input), without AcCoA", "setting": "[4]", "value": "0.5 to 0.9", "unit": "% input"}
    ]}
  ]
}
